In the nanobody polyreactivity screen of Harvey et al. (2022):

Experiment: yeast display, Sf9 membrane polyspecificity reagent, FACS + sequencing; frameworks hold sequencing errors
In short: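 Sorting gates, low and high (top ~1%), were placed on anti-HA fluorescence to track expression and on streptavidin fluorescence to track reagent binding. A clone's polyreactivity label is taken from the gate it came out of. The reagent was 10% biotinylated, detergent-solubilized Sf9 membrane, applied for 1 hour at 4 °C to galactose-induced yeast display cells.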

Sequence	polyreactivity (PSR sort gate)
QVQIVESGGGLVQAGGSLRLSCAASGFIFRRNAMGWYRQAPGKERELVATIRASGGRTYYADSVKGRFTISRDNAKNTVYLQRNSLKPEDTAVYYCNAGKAPYLRYDYWGQGTEVTVSS	high polyreactivity
QVQIVESGGGLVQAGGSLRLSCAASGFIFYYYDMGWYRQAPWKERELVAVLTESGSSTYYADSVKGRFTITRDNAKNNVYLQMNSLKPEDTAVYYCAADGRASVGGLGDDYWGQGTQVTVSS	low polyreactivity
QVQIVESGGGLVQAGGSLRLSCAASGFIIGKYTMGWYRQAPGKEREFVAAIRRSGASTYYADSVKGRFTISRDNAKNTVYLQMNSLKPEDTAVYYCSQAGYSPVYGYWGQGTQVTVSS	high polyreactivity
QVQIVESGGGLVQAGGSLRLSCAASGIIFDGYAMGWYRQAPGKERELVAGITIGDITYYADSVKGRFTISRDNAKITVYLQMNSLKPEDTAVYYCAADSYYYQTAYDYWGQGTQVTVSS	low polyreactivity
QVQIVESGGGLVQAGGSLRLSCAASGLTFYQNAMGWYRQAPGKERELVAAITRSGGSTYYADSVKGRFTISRDNAKNTVYLQMNSLKPEDTAVYYCAARGGLSRRYEYWGQGTQVTVSS	high polyreactivity
QVQIVESGGGLVQAGGSLRLSCAASGRIFAGYAIGWYRQAPGKERELVAAISSGGSTYYADSVKGRFTISRDNAKNTVYLQMNSLKPEDTAVYYCSAVGRRVYGTKFYYWGQGTQVTFSS	high polyreactivity
QVQIVESGGGLVQAGGSLRLSCAASGRIFDYYTMGWYRQAPGKERELVASISDGGRTNYADSVKGRFTISRDNAKNTVYLQMNSLKPEDTAVYYCAADFAPVAFDYWGQGTQVTVSS	low polyreactivity
QVQIVESGGGLVQAGGSLRLSCAASGRIFFVNTKGWYRQAPGKERELVATISWSGGSTYYADSVKGRFTISRDNAKNTVYLQMNSLKPEDTAVYYCNRSLTGYDELGYPVPYTYDYWGQGTQVTVSS	low polyreactivity
QVQIVESGGGLVQAGGSLRLSCAASGRIFLPYAMGWYRQAPGKERELVAAITQSGVITSYADSVKGRFTISRDNAKNTVYLQMNSLKPEDTAVYYCATVRTVIVFRFPYSYGYWGQGTQVTVSS	high polyreactivity
QVQIVESGGGLVQAGGSLRLSCAASGRIRSYAMGWYRQAPGKERELVAAISSRGGSTYYADSVKGRFTISRDNAKNTVYLLMNSLKPEDTAVYYCAKGGYCGQGTQVTVSS	high polyreactivity
QVQIVESGGGLVQAGGSLRLSCAASGRTFGVYAMGWYRQAPAKESTYYADSVKGRFTISRDNAKNTVYLQMNSLKPEDTAVYYCNARGGFGYITMDYWGQGTQVTVSS	low polyreactivity
QVQIVESGGGLVQAGGSLRLSCAASGRTFWSYAMVWYRPAPGKEWELVATIKDSDGSTYADSVKGRFKISRDNAKNTVYLQMNSLKPEDTAVYYWIAKTRAGYYFGYGYWGQVTQVTVSS	low polyreactivity
QVQIVESGGGLVQAGGSLRLSCAASGRTLDVYAMGWDRQAPGKERELVARITSGGSTNYADSVKGRFTISRDNAKNTVYLQMNSLKPEDTAVYYCNAVVYPRPYTRPRYRYDYWGQGTQVTVSS	high polyreactivity
QVQIVESGGGLVQAGGSLRLSCAASGRTVKFYAMGWYRQAPGKERELVARITSNSGSTYYADSVKGRFTISRDNAKNTVYLQMNSLKPEDTAVYYCAARGRYRQFNYWGQGTQVTVSS	high polyreactivity
QVQIVESGGGLVQAGGSLRLSCAASGRTVVYNSMGWYRQAPGKERELVAAITRSGDSSYYADSVKGRFSISRDNAKNPVYLQMNSLKPEDTAVYYCNAVSKRYWLMDYWGQGTQVTVSS	high polyreactivity
QVQIVESGGGLVQAGGSLRLSCAASGSIFFAYAMGSYRQAPGKERELVAAITGSGGSTYADSVKGRFTISRDNAKNTVYVQMNSLKPEDTAVYYCAKDHYYYPYKRLFVGHEYWGQGTQVTVSS	low polyreactivity

Sequence	polyreactivity (PSR sort gate)
QVQIVESGGGLVQAGGSLRLSCAASGSIFPINAMGWYRQAPGKERELVAVITSGGGGTYYADCVKGRYTISRDNAKNTVYLQMNSLKPEDPAGYYCAKRLSRKWQKFGYWGQGTQVTVSS	low polyreactivity
QVQIVESGGGLVQAGGSLRLSCAASGSIFRGYAKGWYRQAPGKERELVAAITQRAGSTYYADSVKGRFTISRDNAKNTVYLQMNSLKPEDTAVYYCAADVFYVFLHRVWYNYWGQGTQVTVSS	low polyreactivity
QVQIVESGGGLVQAGGSLRLSCAASGSIFRSYAMGWYRQAPGKERELVAAITSSSGSTYYADSVKGRFTISRDNAKNTVYLQMNSLKPEDTAVYSCAAGSPRRYRYDYWGQGTQVTVSS	high polyreactivity
QVQIVESGGGLVQAGGSLRLSCAASGSIFRYNAMGWYRQARGKERELVAAITSGDSTYYADSVKGRFTISRDNAKNTVYLQMNSLKPEDTAVYYCAVTTWANTQWEEYWGHGTQVTVSS	low polyreactivity
QVQIVESGGGLVQAGGSLRLSCAASGSISVANAMGWYRQAPGKERELVAAITDSGDDTYYADSVKGRFTISRDNAKNTVYFQMNSLKPEDTELYYCAVEAWSVPPYDYWGQGTQVTVSS	low polyreactivity
QVQIVESGGGLVQAGGSLRLSCAASGSSFTLYALGWYRQAPGKERELVAAISWSTTSTYYADSVKGRFTISRDNAKNTVYLQMNSLKPEDTAVYYCNARHWPLAYEYWGQGTQVTVSS	high polyreactivity
QVQIVESGGGLVQAGGSLRLSCAASGSTFAYYTMGWYRQAPGKDRELVAAISASGGSTYYADSVKGRFTISRDNGKNTVYLQMNCLKPEVSEVYYCNAESYLTGWWVDYWGQGSQVTVSS	low polyreactivity
QVQIVESGGGLVQAGGSLRLSCAASGSTFGGYVMGWYRQAPGKERELVAAIRWRTDSTYYADSVKGRFTISRDNAKNTVYLQMNSLKPEDTAVYYCAAPRGTRVGSHLYYWGQGTQVTVSS	high polyreactivity
QVQIVESGGGLVQAGGSLRLSCAASGSTFPTYAMGRYRQAPGKERELVAAITSGSGTNTYYADSVKGRFTISRDNAKNTVYLQMNSLKPEDTAVYYCAKSFRKKYGWGQGTQVTVSS	high polyreactivity
QVQIVESGGGLVQAGGSLRLSCAASGSTFPYNAMVWYRKEPGKERELVAVITTVGSTYYADSVKGRFTISRDNAKNTVYLQMNSLKPEDTAVYYCAAANTQSPGYDYWGQGTQVTVSS	low polyreactivity
QVQIVESGGGLVQAGGSLRLSCAASGSTFTRYAMGWYRQAPGKERELVAAISRTGGSRTYYADSVNGRFTISRDNAKNTVYLQMNCLKPEDTAVYYCAKGYWRYLGFLYFFPARDYWGQGTQVTVSS	high polyreactivity
QVQIVESGGGLVQAGGSLRLSCAASGSTFYGYAMGWYRQAPGKERELVAVINYRGDRTYFADSVKGRFTISRDNAKNTVYLQMNSLKPEDTAVYYCAARYRVYYLAGYEYWGQGTQVTVSS	high polyreactivity
QVQIVESGGGLVQAGGSLRLSCAASGSTINYNAMGWYRQAPGKERELVAAISTNGGSTYYADSVKGRFTISRDNAKNTVYLQMNSLKPEDTAVYYCNKVRKYSRHYDYWGQGTQVTVSS	high polyreactivity
QVQIVESGGGLVQAGGSLRLSCAASGYPFCRNAMGCYRQAPGKERELVAAISRSAGSTNYADSVKGRFTISRDNAMYTVYFQMNSLKPEDTAVYYGAADRYYRDPYWGNYWGQGTQVTVSS	high polyreactivity
QVQIVESGGGLVQAGGSLRLSCAASVIIFSKYGMGWYRQAPGKERELVAAISSSGGTTYYADSVKGRFTISRDNAKNTVYLQMNSLKPEDTAVYYCAATGRRRTYSEYEYWGQGTQVTVSS	high polyreactivity
QVQIVESGGGLVQAGGSLRLSCAAYGRIFVPYAMGWYRPAPGKERELVAAITWRGGSTYYAYSVKGRFTISRDNAKNTVYLQMNSMNPDDTGVYYCNSDEASAGFWFSHLQLGMDYWGQGTQVTVSS	low polyreactivity
